Test results published in patent publication US7604993B2, “Combined regulation of neural cell production” (Stem Cell Therapeutics Inc., priority 2001, dated 2009).
“Also recorded” adds a separate entry of the source.

Legend:
[1] = tested on: neural stem cells in the subventricular zone; experiment: Subcutaneous administration, number of neural stem cells in the subventricular zone; assay type: in vivo
[2] = tested on: migrating neuronal progenitor cells; experiment: Brain anatomical analysis (Cresyl Violet, Doublecortin) in focal ischemic injury (stroke) model; assay type: in vivo; conditions: rats with focal ischemic injury, end of week 6
Text: The animals for the stroke study received unilateral devascularization of the sensorimotor cortex. Using Isoflurane anesthesia, the skin was incised and retracted and the overlying fascia were removed from the skull. A skull opening was made at the following coordinates, taking care not to damage the dura: AP +4.0 to −2.0; L 1.5 to 4 (the parasagittal ridge; Kolb et al., 1997). The dura was cut and retracted from the skull opening. A cotton swab soaked in sterile saline was gently rubbed across the exposed pia and the vessels were removed. A hole was then drilled in the contralateral hemisphere to provide an opening for the cannulae attached to the osmotic minipump at AP −0.5; L 1.5. An osmotic minipump was placed under the skin between the shoulder blades and a tube connected under the skin to the cannulae, which was attached to the skull with fast-drying cement. Once hemostasis had been achieved the scalp was sutured closed with 5-O sterile suture. The animals were given a single injection of Banamine (an analgesic) and returned to their home cage. Sham animals received only anesthesia, the bone opening, and the skin was incised and sutured. […] The animals then received various test factors, and the effects of these factors on the forelimb inhibition test and brain anatomy were assessed. […]

[3] = Forelimb inhibition test in focal ischemic injury (stroke) model; assay type: in vivo; conditions: rats with focal ischemic injury; first infusion days 1-7, second infusion days 8-14
Text: Adult male Long-Evans rats (250-350 g) were obtained from Charles River Breeding Farms and were adapted to the colony for two weeks prior to any treatment. A week before surgery the rats were given a baseline testing on the behavioral tests.
The animals for the stroke study received unilateral devascularization of the sensorimotor cortex. Using Isoflurane anesthesia, the skin was incised and retracted and the overlying fascia were removed from the skull. A skull opening was made at the following coordinates, taking care not to damage the dura: AP +4.0 to −2.0; L 1.5 to 4 (the parasagittal ridge; Kolb et al., 1997). The dura was cut and retracted from the skull opening. A cotton swab soaked in sterile saline was gently rubbed across the exposed pia and the vessels were removed. A hole was then drilled in the contralateral hemisphere to provide an opening for the cannulae attached to the osmotic minipump at AP −0.5; L 1.5. […]
Six days later the animals were assessed using the behavioral test. […]
In normal rats, swimming is accomplished by propulsion from the hind limbs. […] Inhibition of the forelimbs was assessed by filming animals while swimming. […]
The animals then received various test factors, and the effects of these factors on the forelimb inhibition test and brain anatomy were assessed. […]

neural stem cells [4] = experiment: BrdU labelling of proliferating cells in infused animals; assay type: in vivo, mice; conditions: BrdU also given to the infused animals
neural stem cells [5] = experiment: Number of EGF-responsive neural stem cells (primary neurospheres) after infusion into the lateral ventricle; assay type: in vivo, mice
Text: Thus, we infused either CNTF or EPO into the lateral ventricles of adult mice for six days, after which we either removed the entire adult ependyma/subependyma to examine the total number of EGF-responsive NSCs or examined the in vivo production of neuronal precursors. […] Therefore, EGF-responsive NSCs turn over continuously in vivo, a sub-population of which spontaneously differentiates into restricted glial precursors, while another sub-population is directed to the neuronal restricted linage by EPO.
The protocols for neural stem cell culture are described in detail in U.S. Pat. No. 5,750,376 or Shingo et al., 2001. Briefly, embryonic neural stem cells were prepared from E14 medial and lateral ganglionic eminences. Adult neural stem cells were prepared from the subventricular zone of adult mice. The tissue was cultured in basal medium containing 20 ng/ml EGF, or other growth factors as indicated in each case, to form neurospheres. The composition of the basal medium is as follows: DMEM/F12 (1:1); glucose (0.6%); glutamine (2 mM); sodium bicarbonate (3 mM); HEPES (5 mM); insulin (25 μg/ml); transferrin (100 μg/ml); progesterone ([…]); putrescine (60 μM); and selenium chloride (30 nM). […]

Molecule | delivery by subcutaneous administration to modulate the number of neural stem cells in the subventricular zone [1] | doublecortin staining / doublecortin positive cells in the brain [2] | forepaw inhibition / motor function in the forelimb inhibition test [3] | number of BrdU positive cells (neural stem cells [4]) | increase of the number of primary neurospheres that can be obtained from the brain (neural stem cells [5]; infusion into adult mice for six days) | increase in the number of NSCs (neural stem cells [5]; infusion into lateral ventricles of adult mice for six days)
prolactin: prolactin, first infusion days 1-7, then CSF (Group 3) (protein, UniProt P01236 29-227, looked up) Prolactin: LPICPGGAARCQVTLRDLFDRAVVLSHYIHNLSSEMFSEFDKRYTHGRGFITKAINSCHTSSLATPEDKEQAQQMNQKDFLSLIVSILRSWNEPLYHLVTEVRGMQEAPEAILSKAVEIEEQTKRLLEGMELIVSQVHPETKENEIYPVWSGLPSLQMADEESRLSAYYNLLHCLRRDSHKIDNYLKLLKCRIIHNNNC | effectively delivered | high degree of doublecortin staining | improvement of motor functions; also recorded: acted to correct abnormal positioning of the forelimb during swimming; also recorded: recovery from a representative symptom of stroke; also recorded: improved the motor function | – | – | –
CNTF: rat recombinant CNTF, ciliary neurotrophic factor (protein, UniProt P20294 1-200, looked up) Ciliary neurotrophic factor: MAFAEQTPLTLHRRDLCSRSIWLARKIRSDLTALMESYVKHQGLNKNINLDSVDGVPVASTDRWSEMTEAERLQENLQAYRTFQGMLTKLLEDQRVHFTPTEGDFHQAIHTLMLQVSAFAYQLEELMVLLEQKIPENEADGMPATVGDGGLFEKKLWGLKVLQELSQWTVRSIHDLRVISSHQMGISALESHYGAKDKQM | – | – | – | did not increase | about 25% | 20-25%
